# B1: Iron-sulfur cluster assembly factor IBA57, mitochondrial (Homo sapiens), Q5T440 (parent)
# chain: MATAALLRGATPGRGGPVWRWRLRAAPRCRLAHSSCSPGGDPTAGAAWACFRLDGRTLLRVRGPDAAPFLLGLLTNELPLPSPAAAGAPPAARAGYAHFLNVQGRTLYDVILYGLQEHSEVSGFLLECDSSVQGALQKHLALYRIRRKVTVEPHPELRVWAVLPSSPEACGAASLQERAGAAAILIRDPRTARMGWRLLTQDEGPALVPGGRLGDLWDYHQHRYLQGVPEGVRDLPPGVALPLESNLAFMNGVSFTKGCYIGQELTARTHHMGVIRKRLFPVRFLDPLPTSGITPGATVLTASGQTVGKFRAGQGNVGLALLWSEKIKGPLHIRASEGAQVALAASVPDWWPTVSK
# partner: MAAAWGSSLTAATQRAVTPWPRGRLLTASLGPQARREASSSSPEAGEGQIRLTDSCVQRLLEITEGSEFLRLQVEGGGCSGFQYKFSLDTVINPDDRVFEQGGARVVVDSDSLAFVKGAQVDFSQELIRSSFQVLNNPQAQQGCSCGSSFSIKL
# Variants of: B1
# Conditions: with isca2_human ISCA2, Q86U28
row,effect of a mutation on the interaction,Variant
1,disrupting interaction strength,MATAALLRGATPGRGGPVWRWRLRAAPRCRLAHSSCSPGGDPTAGAAWACFRLDGRTLLRVRGPDAAPFLLGLLTNELPLPSPAAAGAPPAARAGYAHFLNVQGRTLYDVILYGLQEHSEVSGFLLECDSSVQGALQKHLALYRIWRKVTVEPHPELRVWAVLPSSPEACGAASLQERAGAAAILIRDPRTARMGWRLLTQDEGPALVPGGRLGDLWDYHQHRYLQGVPEGVRDLPPGVALPLESNLAFMNGVSFTKGCYIGQELTARTHHMGVIRKRLFPVRFLDPLPTSGITPGATVLTASGQTVGKFRAGQGNVGLALLWSEKIKGPLHIRASEGAQVALAASVPDWWPTVSK [R146W]
